Measured values: IntAct's records for PubMed 31515488

B1: MTRF1L release factor glutamine methyltransferase (Homo sapiens), Q9Y5R4 (parent)
chain: MELWGRMLWALLSGPGRRGSTRGWAFSSWQPQPPLAGLSSAIELVSHWTGVFEKRGIPEARESSEYIVAHVLGAKTFQSLRPALWTQPLTSQQLQCIRELSSRRLQRMPVQYILGEWDFQGLSLRMVPPVFIPRPETEELVEWVLEEVAQRSHAVGSPGSPLILEVGCGSGAISLSLLSQLPQSRVIAVDKREAAISLTHENAQRLRLQDRIWIIHLDMTSERSWTHLPWGPMDLIVSNPPYVFHQDMEQLAPEIRSYEDPAALDGGEEGMDIITHILALAPRLLKDSGSIFLEVDPRHPELVSSWLQSRPDLYLNLVAVRRDFCGRPRFLHIRRSGP
partner: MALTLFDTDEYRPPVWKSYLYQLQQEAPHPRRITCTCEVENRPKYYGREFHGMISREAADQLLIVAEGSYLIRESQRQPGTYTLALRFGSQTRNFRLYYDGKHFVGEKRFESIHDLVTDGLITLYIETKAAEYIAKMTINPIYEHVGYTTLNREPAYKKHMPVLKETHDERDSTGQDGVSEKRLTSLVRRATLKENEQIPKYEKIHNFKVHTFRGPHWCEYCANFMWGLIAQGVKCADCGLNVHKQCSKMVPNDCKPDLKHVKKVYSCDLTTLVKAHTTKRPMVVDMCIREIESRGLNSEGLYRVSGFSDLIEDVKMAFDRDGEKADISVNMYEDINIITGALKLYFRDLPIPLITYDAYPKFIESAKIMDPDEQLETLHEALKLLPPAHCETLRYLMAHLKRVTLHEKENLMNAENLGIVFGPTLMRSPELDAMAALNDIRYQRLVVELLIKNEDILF
B2: NAD kinase (Homo sapiens), O95544 (parent)
chain: MEMEQEKMTMNKELSPDAAAYCCSACHGDETWSYNHPIRGRAKSRSLSASPALGSTKEFRRTRSLHGPCPVTTFGPKACVLQNPQTIMHIQDPASQRLTWNKSPKSVLVIKKMRDASLLQPFKELCTHLMEENMIVYVEKKVLEDPAIASDESFGAVKKKFCTFREDYDDISNQIDFIICLGGDGTLLYASSLFQGSVPPVMAFHLGSLGFLTPFSFENFQSQVTQVIEGNAAVVLRSRLKVRVVKELRGKKTAVHNGLGENGSQAAGLDMDVGKQAMQYQVLNEVVIDRGPSSYLSNVDVYLDGHLITTVQGDGVIVSTPTGSTAYAAAAGASMIHPNVPAIMITPICPHSLSFRPIVVPAGVELKIMLSPEARNTAWVSFDGRKRQEIRHGDSISITTSCYPLPSICVRDPVSDWFESLAQCLHWNVRKKQAHFEEEEEEEEEG
B3: Nebulette (Homo sapiens), O76041 (parent)
chain: MRVPVFEDIKDETEEEKIGEEENEEDQVFYKPVIEDLSMELARKCTELISDIRYKEEFKKSKDKCTFVTDSPMLNHVKNIGAFISEAKYKGTIKADLSNSLYKRMPATIDSVFAGEVTQLQSEVAYKQKHDAAKGFSDYAHMKEPPEVKHAMEVNKHQSNISYRKDVQDTHTYSAELDRPDIKMATQISKIISNAEYKKGQGIMNKEPAVIGRPDFEHAVEASKLSSQIKYKEKFDNEMKDKKHHYNPLESASFRQNQLAATLASNVKYKKDIQNMHDPVSDLPNLLFLDHVLKASKMLSGREYKKLFEENKGMYHFDADAVEHLHHKGNAVLQSQVKYKEEYEKNKGKPMLEFVETPSYQASKEAQKMQSEKVYKEDFEKEIKGRSSLDLDKTPEFLHVKYITNLLREKEYKKDLENEIKGKGMELNSEVLDIQRAKRASEMASEKEYKKDLESIIKGKGMQAGTDTLEMQHAKKAAEIASEKDYKRDLETEIKGKGMQVSTDTLDVQRAKKASEMASQKQYKKDLENEIKGKGMQVSMDIPDILRAKRTSEIYSQRKYKDEAEKMLSNYSTIADTPEIQRIKTTQQNISAVFYKKEVGAGTAVKDSPEIERVKKNQQNISSVKYKEEIKHATAISDPPELKRVKENQKNISNLQYKEQNYKATPVSMTPEIERVRRNQEQLSAVKYKGELQRGTAISDPPELKRAKENQKNISNVYYRGQLGRATTLSVTPEMERVKKNQENISSVKYTQDHKQMKGRPSLILDTPAMRHVKEAQNHISMVKYHEDFEKTKGRGFTPVVDDPVTERVRKNTQVVSDAAYKGVHPHIVEMDRRPGIIVDLKVWRTDPGSIFDLDPLEDNIQSRSLHMLSEKASHYRRHWSRSHSSSTFGTGLGDDRSEISEIYPSFSCCSEVTRPSDEGAPVLPGAYQQSHSQGYGYMHQTSVSSMRSMQHSPNLRTYRAMYDYSAQDEDEVSFRDGDYIVNVQPIDDGWMYGTVQRTGRTGMLPANYIEFVN
B4: Phospholipid scramblase 4 (Homo sapiens), Q9NRQ2 (parent)
chain: MSGVVPTAPEQPAGEMENQTKPPDPRPDAPPEYNSHFLPGPPGTAVPPPTGYPGGLPMGYYSPQQPSTFPLYQPVGGIHPVRYQPGKYPMPNQSVPITWMPGPTPMANCPPGLEYLVQLDNIHVLQHFEPLEMMTCFETNNRYDIKNNSDQMVYIVTEDTDDFTRNAYRTLRPFVLRVTDCMGREIMTMQRPFRCTCCCFCCPSARQELEVQCPPGVTIGFVAEHWNLCRAVYSIQNEKKENVMRVRGPCSTYGCGSDSVFEVKSLDGISNIGSIIRKWNGLLSAMADADHFDIHFPLDLDVKMKAMIFGACFLIDFMYFERSPPQRSR
partner: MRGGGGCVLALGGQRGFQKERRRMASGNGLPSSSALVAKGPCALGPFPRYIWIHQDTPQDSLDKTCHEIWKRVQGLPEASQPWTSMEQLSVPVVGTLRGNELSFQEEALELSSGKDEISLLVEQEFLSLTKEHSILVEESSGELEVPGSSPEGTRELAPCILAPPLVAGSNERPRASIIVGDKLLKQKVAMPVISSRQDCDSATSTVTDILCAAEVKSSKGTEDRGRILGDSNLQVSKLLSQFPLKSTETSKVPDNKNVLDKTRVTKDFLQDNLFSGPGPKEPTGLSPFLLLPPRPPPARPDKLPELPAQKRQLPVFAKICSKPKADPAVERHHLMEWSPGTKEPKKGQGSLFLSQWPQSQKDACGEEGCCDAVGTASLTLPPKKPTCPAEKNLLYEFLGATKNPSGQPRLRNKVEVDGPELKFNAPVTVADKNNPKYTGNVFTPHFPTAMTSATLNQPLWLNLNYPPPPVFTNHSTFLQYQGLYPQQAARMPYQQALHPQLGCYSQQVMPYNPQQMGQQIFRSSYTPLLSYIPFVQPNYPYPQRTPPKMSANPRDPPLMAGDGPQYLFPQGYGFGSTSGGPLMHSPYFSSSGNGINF

Variants of: B1
Conditions: with chin_human CHN1, P15882

Variant | effect of a mutation on the interaction
H200Q | disrupting interaction strength

Variants of: B2
Conditions: with sdcb1_human SDCBP

Variant | effect of a mutation on the interaction
R249W | with no effect

Variants of: B3
Conditions: with traf2_human TRAF2, Q12933
traf2_human TRAF2, Q12933, sequence (Q12933 whole entry): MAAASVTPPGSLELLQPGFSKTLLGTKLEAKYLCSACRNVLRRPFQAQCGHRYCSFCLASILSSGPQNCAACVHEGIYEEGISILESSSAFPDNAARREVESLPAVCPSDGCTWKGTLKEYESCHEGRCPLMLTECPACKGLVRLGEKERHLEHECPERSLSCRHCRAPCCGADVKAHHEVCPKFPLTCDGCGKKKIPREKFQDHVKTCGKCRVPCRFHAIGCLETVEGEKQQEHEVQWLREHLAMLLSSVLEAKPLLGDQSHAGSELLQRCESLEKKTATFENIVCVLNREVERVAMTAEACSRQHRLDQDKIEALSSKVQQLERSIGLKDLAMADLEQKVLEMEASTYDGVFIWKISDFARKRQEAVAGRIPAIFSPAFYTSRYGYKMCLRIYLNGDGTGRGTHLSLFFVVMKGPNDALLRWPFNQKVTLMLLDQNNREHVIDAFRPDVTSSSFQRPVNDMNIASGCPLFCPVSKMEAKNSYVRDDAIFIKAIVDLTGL

Variant | effect of a mutation on the interaction
R613Q | with no effect
M351V | with no effect

Variants of: B3
Conditions: with cc136_human CCDC136, Q96JN2
cc136_human CCDC136, Q96JN2, sequence (Q96JN2 whole entry): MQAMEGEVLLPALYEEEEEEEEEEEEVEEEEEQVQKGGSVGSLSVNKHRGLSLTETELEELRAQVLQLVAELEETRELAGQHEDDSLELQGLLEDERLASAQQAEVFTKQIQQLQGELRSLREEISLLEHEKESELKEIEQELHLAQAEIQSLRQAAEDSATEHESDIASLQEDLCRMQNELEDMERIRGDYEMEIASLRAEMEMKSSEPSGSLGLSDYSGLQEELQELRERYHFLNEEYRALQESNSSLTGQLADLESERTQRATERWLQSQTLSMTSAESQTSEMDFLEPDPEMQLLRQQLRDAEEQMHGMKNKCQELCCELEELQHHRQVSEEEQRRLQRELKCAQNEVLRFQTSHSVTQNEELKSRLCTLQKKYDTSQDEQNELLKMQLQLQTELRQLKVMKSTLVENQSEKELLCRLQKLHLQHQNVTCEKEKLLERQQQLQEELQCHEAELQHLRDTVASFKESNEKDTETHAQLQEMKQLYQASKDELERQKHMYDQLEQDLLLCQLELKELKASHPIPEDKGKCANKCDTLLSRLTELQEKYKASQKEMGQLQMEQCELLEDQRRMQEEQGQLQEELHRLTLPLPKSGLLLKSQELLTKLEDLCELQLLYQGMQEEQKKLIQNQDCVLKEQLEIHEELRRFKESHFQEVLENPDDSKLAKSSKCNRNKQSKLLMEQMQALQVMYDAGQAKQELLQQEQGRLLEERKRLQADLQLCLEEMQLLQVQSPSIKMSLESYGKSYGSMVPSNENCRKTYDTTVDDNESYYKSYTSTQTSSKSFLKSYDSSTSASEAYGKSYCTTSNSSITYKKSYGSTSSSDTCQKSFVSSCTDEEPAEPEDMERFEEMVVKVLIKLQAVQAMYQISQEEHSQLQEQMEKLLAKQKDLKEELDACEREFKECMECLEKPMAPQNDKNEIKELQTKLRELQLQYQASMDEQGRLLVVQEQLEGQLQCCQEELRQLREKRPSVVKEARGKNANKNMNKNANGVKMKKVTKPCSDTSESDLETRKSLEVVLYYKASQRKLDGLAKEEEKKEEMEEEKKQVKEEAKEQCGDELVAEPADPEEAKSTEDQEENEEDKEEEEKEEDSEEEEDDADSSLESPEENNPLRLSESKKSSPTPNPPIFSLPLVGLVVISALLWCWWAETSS

Variant | effect of a mutation on the interaction
R613Q | with no effect
M351V | with no effect

Variants of: B3
Conditions: with traf1_human TRAF1, Q13077
traf1_human TRAF1, Q13077, sequence (Q13077 whole entry): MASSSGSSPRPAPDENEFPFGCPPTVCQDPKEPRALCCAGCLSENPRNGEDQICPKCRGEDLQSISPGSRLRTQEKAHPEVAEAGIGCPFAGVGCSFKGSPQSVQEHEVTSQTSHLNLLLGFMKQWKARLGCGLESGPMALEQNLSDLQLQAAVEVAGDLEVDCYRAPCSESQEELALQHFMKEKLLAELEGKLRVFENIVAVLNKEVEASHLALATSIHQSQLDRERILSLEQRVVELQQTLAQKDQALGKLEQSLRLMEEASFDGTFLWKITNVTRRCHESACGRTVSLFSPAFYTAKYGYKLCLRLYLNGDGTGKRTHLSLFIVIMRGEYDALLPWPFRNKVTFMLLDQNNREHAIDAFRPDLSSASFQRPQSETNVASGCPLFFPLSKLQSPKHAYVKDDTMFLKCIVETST

Variant | effect of a mutation on the interaction
R613Q | with no effect
M351V | with no effect

Variants of: B4
Conditions: with ca094_human C1orf94, Q6P1W5

Variant | effect of a mutation on the interaction
A107S | with no effect
N34S | with no effect
I155V | with no effect
